Measurements: PMC3702631 (Structure (London, England : 1993), 2013)

Target: the molecule itself
Assay: SEC

Protein	stoichiometry N
full-length mouse TBK1 (GST tag cleaved) (enzyme, UniProt Q9WUN2 1-729, looked up) MQSTSNHLWLLSDILGQGATANVFRGRHKKTGDLYAVKVFNNISFLRPVDVQMREFEVLKKLNHKNIVKLFAIEEETTTRHKVLIMEFCPCGSLYTVLEEPSNAYGLPESEFLIVLRDVVGGMNHLRENGIVHRDIKPGNIMRVIGEDGQSVYKLTDFGAARELEDDEQFVSLYGTEEYLHPDMYERAVLRKDHQKKYGATVDLWSVGVTFYHAATGSLPFRPFEGPRRNKEVMYKIITGKPSGAISGVQKAENGPIDWSGDMPLSCSLSQGLQALLTPVLANILEADQEKCWGFDQFFAETSDVLHRMVIHVFSLQHMTAHKIYIHSYNTAAVFHELVYKQTKIVSSNQELIYEGRRLVLELGRLAQHFPKTTEENPIFVTSREQLNTVGLRYEKISLPKIHPRYDLDGDASMAKAVTGVVCYACRTASTLLLYQELMRKGVRWLVELVKDDYNETVHKKTEVVITLDFCIRNIEKTVKVYEKLMKVNLEAAELGEISDIHTKLLRLSSSQGTIESSLQDISSRLSPGGLLADTWAHQEGTHPRDRNVEKLQVLLNCITEIYYQFKKDKAERRLAYNEEQIHKFDKQKLYYHATKAMSHFSEECVRKYEAFKDKSEEWMRKMLHLRKQLLSLTNQCFDIEEEVSKYQDYTNELQETLPQKMLAASGGVKHAMAPIYPSSNTLVEMTLGMKKLKEEMEGVVKELAENNHILERFGSLTMDGGLRNVDCL	2
mouse TBK1 C-terminal truncation, residues 1-657 (GST tag cleaved) (domain or fragment, UniProt Q9WUN2 1-657, looked up) MQSTSNHLWLLSDILGQGATANVFRGRHKKTGDLYAVKVFNNISFLRPVDVQMREFEVLKKLNHKNIVKLFAIEEETTTRHKVLIMEFCPCGSLYTVLEEPSNAYGLPESEFLIVLRDVVGGMNHLRENGIVHRDIKPGNIMRVIGEDGQSVYKLTDFGAARELEDDEQFVSLYGTEEYLHPDMYERAVLRKDHQKKYGATVDLWSVGVTFYHAATGSLPFRPFEGPRRNKEVMYKIITGKPSGAISGVQKAENGPIDWSGDMPLSCSLSQGLQALLTPVLANILEADQEKCWGFDQFFAETSDVLHRMVIHVFSLQHMTAHKIYIHSYNTAAVFHELVYKQTKIVSSNQELIYEGRRLVLELGRLAQHFPKTTEENPIFVTSREQLNTVGLRYEKISLPKIHPRYDLDGDASMAKAVTGVVCYACRTASTLLLYQELMRKGVRWLVELVKDDYNETVHKKTEVVITLDFCIRNIEKTVKVYEKLMKVNLEAAELGEISDIHTKLLRLSSSQGTIESSLQDISSRLSPGGLLADTWAHQEGTHPRDRNVEKLQVLLNCITEIYYQFKKDKAERRLAYNEEQIHKFDKQKLYYHATKAMSHFSEECVRKYEAFKDKSEEWMRKMLHLRKQLLSLTNQCFDIEEEVSKYQDYTNELQET	2
